Measurements published in patent US20190040368.

Assays:
[1] = target: T1, recombinant human iduronate-2 sulfatase (rhIDS)
T1 chain: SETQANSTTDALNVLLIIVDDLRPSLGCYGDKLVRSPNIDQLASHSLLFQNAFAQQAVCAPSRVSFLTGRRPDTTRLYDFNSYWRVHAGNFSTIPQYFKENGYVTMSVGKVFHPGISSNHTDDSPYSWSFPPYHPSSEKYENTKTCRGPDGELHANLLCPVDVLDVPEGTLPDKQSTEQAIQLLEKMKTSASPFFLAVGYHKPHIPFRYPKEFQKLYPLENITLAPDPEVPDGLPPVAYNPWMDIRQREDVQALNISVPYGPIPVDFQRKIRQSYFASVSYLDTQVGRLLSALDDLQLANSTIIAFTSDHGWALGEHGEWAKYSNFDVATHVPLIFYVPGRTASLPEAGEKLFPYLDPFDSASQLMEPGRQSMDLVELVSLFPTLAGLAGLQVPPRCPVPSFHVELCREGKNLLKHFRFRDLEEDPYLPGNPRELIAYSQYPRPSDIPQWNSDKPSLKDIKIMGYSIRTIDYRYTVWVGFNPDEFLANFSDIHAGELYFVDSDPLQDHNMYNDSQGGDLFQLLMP

[2] = target: T2, recombinant human sulfamidase (rSGSH)
T2 chain: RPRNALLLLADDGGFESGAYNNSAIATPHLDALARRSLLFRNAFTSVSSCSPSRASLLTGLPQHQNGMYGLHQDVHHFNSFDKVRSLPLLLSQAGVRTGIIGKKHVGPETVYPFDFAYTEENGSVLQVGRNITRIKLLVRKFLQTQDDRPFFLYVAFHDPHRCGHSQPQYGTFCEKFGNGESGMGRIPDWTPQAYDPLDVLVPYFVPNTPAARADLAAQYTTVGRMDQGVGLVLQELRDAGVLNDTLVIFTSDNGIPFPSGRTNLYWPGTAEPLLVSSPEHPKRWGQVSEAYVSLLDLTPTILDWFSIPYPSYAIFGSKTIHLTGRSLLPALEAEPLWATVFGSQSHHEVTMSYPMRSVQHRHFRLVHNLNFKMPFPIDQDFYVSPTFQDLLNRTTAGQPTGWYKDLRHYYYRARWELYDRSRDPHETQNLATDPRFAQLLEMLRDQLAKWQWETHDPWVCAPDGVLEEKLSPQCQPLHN

B1: Bos taurus FGE fusion protein (Lip2pre-BtFGE-6HIS-HDEL) (protein)
chain: GEEAGPEAGAPSLVGSCGCGNPQRPGAQGSSAAAHRYSREANAPGSVPGGRPSPPTKMVPIPAGVFTMGTDDPQIKQDGEAPARRVAIDAFYMDAYEVSNAEFEKFVNSTGYLTEAEKFGDSFVFEGMLSEQVKSDIQQAVAAAPWWLPVKGANWRHPEGPDSTVLHRPDHPVLHVSWNDAVAYCTWAGKRLPTEAEWEYSCRGGLQNRLFPWGNKLQPKGQHYANIWQGEFPVTNTGEDGFRGTAPVDAFPPNGYGLYNIVGNAWEWTSDWWTVHHSAEETINPKGPPSGKDRVKKGGSYMCHKSYCYRYRCAARSQNTPDSSASNLGFRCAADHLPTTGADHLPTTGHHHHHHHDEL
Protein B1 has a % FGly conversion (nano-LC MS); strain T146 (OXYY1828; BtFGE) [1] of 89.8%, a % FGly conversion (nano-LC MS); strain T146 (OXYY1828; BtFGE), duplicate [1] of 92.7% and a % FGly conversion-re-analyzed samples; DG29U5#7, OXYY1828; BtFGE [1] of 95.8%. For the same protein, the % FGly conversion-re-analyzed samples; DG33U6#6, OXYY1803; BtFGE and hPDI co-expressed [1] was 90.3%, the % FGly conversion-re-analyzed samples; DG33U8#6, OXYY1828; BtFGE [1] was 97.1% and the % FGly conversion; DG33U6#6, OXYY1803; BtFGE and hPDI co-expressed [1] was 79.5%. For the same protein, the “% FGly conversion; two copies of rhIDS and one copy of BtFGE (POX2 driven)” value [1] was 100% FGly conversion at a detection limit of -0.5%, the % active rhIDS (4MU activity against ELISA); 1 copy rhIDS, 1 copy BtFGE (POX) [1] was 129% and the % active rhIDS (4MU activity against ELISA); 1 copy rhIDS, 1 copy BtFGE (POX), 1 copy hPDI (POX) [1] was 121%. For the same protein, the “% activity of rhIDS; two copies of rhIDS and one copy of BtFGE (POX2 driven)” value [1] was 101% activity, the “Cys->FGly conversion in rhIDS (nano-LC-MS after cation exchange purification); BtFGE as a single POX2 driven copy” value [1] was “complete conversion (100%, with a detection limit of -0.5%)” and the “active rhIDS (4MU fluorogenic activity assay against sandwich ELISA), co-expression in Y. lipolytica” value [1] was “All Y. lipolytica strains co-expressing rFGE with rhIDS resulted in the expression of active rhIDS”. For the same protein, the % FGly conversion; sample 1, SGSH (POX) + BtFGE (POX) + hPDI (POX) [2] was 95.4%, the % FGly conversion; sample 2, SGSH (POX) + BtFGE (POX) + hPDI (POX) [2] was 80.4% and the % FGly conversion; sample 3, SGSH (POX) + BtFGE (POX) + hPDI (POX) § [2] was 93.4%. The % FGly conversion; sample 4, SGSH (POX) + BtFGE (POX) + hPDI (POX) § [2] was 86.1% and the % FGly conversion; sample 5, SGSH (POX) + BtFGE (POX & Hp4d) [2] was 94.4%.
